Results reported in PMC8285493 (Nature Communications, 2021).
Read-outs that look alike come from different tables or passages of the source.

B1: catalytic domain of PDE3A (PDE3A^CAT), residues 640-1141 (domain or fragment, human, UniProt Q14432 640-1141, looked up)
chain: EDETECLREPLRKASACSTYAPETMMFLDKPILAPEPLVMDNLDSIMEQLNTWNFPIFDLVENIGRKCGRILSQVSYRLFEDMGLFEAFKIPIREFMNYFHALEIGYRDIPYHNRIHATDVLHAVWYLTTQPIPGLSTVINDHGSTSDSDSDSGFTHGHMGYVFSKTYNVTDDKYGCLSGNIPALELMALYVAAAMHDYDHPGRTNAFLVATSAPQAVLYNDRSVLENHHAAAAWNLFMSRPEYNFLINLDHVEFKHFRFLVIEAILATDLKKHFDFVAKFNGKVNDDVGIDWTNENDRLLVCQMCIKLADINGPAKCKELHLQWTDGIVNEFYEQGDEEASLGLPISPFMDRSAPQLANLQESFISHIVGPLCNSYDSAGLMPGKWVEDSDESGDTDDPEEEEEEAPAPNEEETCENNESPKKKTFKRRKIYCQITQHLLQNHKMWKKVIEEEQRLAGIENQSLDQTPQSHSSEQIQAIKEEEEEKGKPRGEEIPTQKPDQ
B2: full-length SLFN12 (natural protein, human, UniProt Q8IYM2 1-578, looked up)
chain: MNISVDLETNYAELVLDVGRVTLGENSRKKMKDCKLRKKQNESVSRAMCALLNSGGGVIKAEIENEDYSYTKDGIGLDLENSFSNILLFVPEYLDFMQNGNYFLIFVKSWSLNTSGLRITTLSSNLYKRDITSAKVMNATAALEFLKDMKKTRGRLYLRPELLAKRPCVDIQEENNMKALAGVFFDRTELDRKEKLTFTESTHVEIKNFSTEKLLQRIKEILPQYVSAFANTDGGYLFIGLNEDKEIIGFKAEMSDLDDLEREIEKSIRKMPVHHFCMEKKKINYSCKFLGVYDKGSLCGYVCALRVERFCCAVFAKEPDSWHVKDNRVMQLTRKEWIQFMVEAEPKFSSSYEEVISQINTSLPAPHSWPLLEWQRQRHHCPGLSGRITYTPENLCRKLFLQHEGLKQLICEEMDSVRKGSLIFSRSWSVDLGLQENHKVLCDALLISQDSPPVLYTFHMVQDEEFKGYSTQTALTLKQKLAKIGGYTKKVCVMTKIFYLSPEGMTSCQYDLRSQVIYPESYYFTRRKYLLKALFKALKRLKSLRDQFSFAENLYQIIGIDCFQKNDKKMFKSCRRLT
B3: biotinylated Avi-tagged PDE3A^CAT (domain or fragment, human, UniProt Q14432 640-1141, looked up)
chain: EDETECLREPLRKASACSTYAPETMMFLDKPILAPEPLVMDNLDSIMEQLNTWNFPIFDLVENIGRKCGRILSQVSYRLFEDMGLFEAFKIPIREFMNYFHALEIGYRDIPYHNRIHATDVLHAVWYLTTQPIPGLSTVINDHGSTSDSDSDSGFTHGHMGYVFSKTYNVTDDKYGCLSGNIPALELMALYVAAAMHDYDHPGRTNAFLVATSAPQAVLYNDRSVLENHHAAAAWNLFMSRPEYNFLINLDHVEFKHFRFLVIEAILATDLKKHFDFVAKFNGKVNDDVGIDWTNENDRLLVCQMCIKLADINGPAKCKELHLQWTDGIVNEFYEQGDEEASLGLPISPFMDRSAPQLANLQESFISHIVGPLCNSYDSAGLMPGKWVEDSDESGDTDDPEEEEEEAPAPNEEETCENNESPKKKTFKRRKIYCQITQHLLQNHKMWKKVIEEEQRLAGIENQSLDQTPQSHSSEQIQAIKEEEEEKGKPRGEEIPTQKPDQ
modifications: biotin on the Avi-tag (BirA ligase)

Tests used:
AUC = biological target: the molecule itself; test: AUC
His6-MBP-SLFN12 = His6-MBP-SLFN12 (human, UniProt Q8IYM2 1-578); test: pull-down
SEC-MALS [1] = biological target: the molecule itself; test: SEC-MALS
[2] = biological target: B3; test: BLI
SEC-MALS [3] = biological target: the molecule itself; test: SEC-MALS; remark: listed apart in the source
[4] = biological target: B1; test: SEC-MALS
full-length SLFN12 = biological target: B2; test: BLI

| Binder | Kd (AUC) [nM] | binding result (His6-MBP-SLFN12) | stoichiometry N (SEC-MALS [1]) | KD with DNMDP [2] [nM] | stoichiometry N (SEC-MALS [3]) | stoichiometry N [4] | Kd (full-length SLFN12) [nM] |
| --- | --- | --- | --- | --- | --- | --- | --- |
| B1 | 40 | binds | 2 | – | – | – | – |
| B2 | 870 | – | – | 65 | 2 | 1 SLFN12 per PDE3A^CAT (2:2) | – |
| B3 | – | – | – | – | – | – | 320 |
